Experiment in all cases: cell-based or functional assay
Experiment [1] addresses T1, human GPRC5D (human, UniProt Q9NZD1 1-345).
Experiment [2] addresses T1, human GPRC5D. This is another data set of the same source.
In experiment [3] the target is T1, human GPRC5D. This is another data set of the same source.

T1 sequence (Q9NZD1 whole entry): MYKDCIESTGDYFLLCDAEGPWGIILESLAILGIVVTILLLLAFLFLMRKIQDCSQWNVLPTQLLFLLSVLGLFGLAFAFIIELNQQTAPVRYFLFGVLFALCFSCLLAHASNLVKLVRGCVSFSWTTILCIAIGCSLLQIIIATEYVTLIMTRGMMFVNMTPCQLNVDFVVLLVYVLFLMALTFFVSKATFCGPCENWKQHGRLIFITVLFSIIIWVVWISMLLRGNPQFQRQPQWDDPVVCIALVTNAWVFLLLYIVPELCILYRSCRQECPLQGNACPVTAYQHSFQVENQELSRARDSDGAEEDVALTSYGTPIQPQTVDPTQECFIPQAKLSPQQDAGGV

B1: 5E11-TCB (bispecific antibody, human IgG1, kappa, L234A L235A)
light 1: DIVLTQSPALAVSPGQRATISCRASQSVSISGINLMNWYQQKPGQQPKLLIYHASILASGIPTRFSGSGSGTDFTLTIDPVQADDIATYYCQQTRESPLTFGSGTNLEIKRTVAAPSVFIFPPSDRKLKSGTASVVCLLNNFYPREAKVQWKVDNALQSGNSQESVTEQDSKDSTYSLSSTLTLSKADYEKHKVYACEVTHQGLSSPVTKSFNRGEC
light 2: EVQLLESGGGLVQPGGSLRLSCAASGFTFSTYAMNWVRQAPGKGLEWVSRIRSKYNNYATYYADSVKGRFTISRDDSKNTLYLQMNSLRAEDTAVYYCVRHGNFGNSYVSWFAYWGQGTLVTVSSASVAAPSVFIFPPSDEQLKSGTASVVCLLNNFYPREAKVQWKVDNALQSGNSQESVTEQDSKDSTYSLSSTLTLSKADYEKHKVYACEVTHQGLSSPVTKSFNRGEC
heavy 1: ELQLEQSGGGLVQPGGSLTLSCAASGFTFSKYAMAWVRQAPTKGLEWVASISTGGVNTYYRDSVKARFTISRDNAKNTQYLQMDSLRSEDTATYYCATHTGDYFDYWGQGVMVTVSSASTKGPSVFPLAPSSKSTSGGTAALGCLVEDYFPEPVTVSWNSGALTSGVHTFPAVLQSSGLYSLSSVVTVPSSSLGTQTYICNVNHKPSNTKVDEKVEPKSCDKTHTCPPCPAPEAAGGPSVFLFPPKPKDTLMISRTPEVTCVVVDVSHEDPEVKFNWYVDGVEVHNAKTKPREEQYNSTYRVVSVLTVLHQDWLNGKEYKCKVSNKALGAPIEKTISKAKGQPREPQVCTLPPSRDELTKNQVSLSCAVKGFYPSDIAVEWESNGQPENNYKTTPPVLDSDGSFFLVSKLTVDKSRWQQGNVFSCSVMHEALHNHYTQKSLSLSPGK
heavy 2: not shown
Take B1: in the experiment with human GPRC5D [1], the “EC50 of T cell mediated killing, AMO-1 cells (LDH release)” value was 0.014 nM; the “EC50 of T cell mediated killing, L363 cells (LDH release)” value was determined as 0.012 nM; the “EC50 of T cell mediated killing, NCI-H929 cells (LDH release)” value turned out to be 0.007 nM; the “EC50 of T cell mediated killing, RPMI-8226 cells (LDH release)” value came out at 0.024 nM. Further, in the experiment with human GPRC5D [2], the “EC50 of in vitro killing, AMO-1” value was determined as 0.008 nM; the “EC50 of in vitro killing, EJM” value stood at 0.011 nM; the “EC50 of in vitro killing, L363” value was determined as 0.017 nM; the “EC50 of in vitro killing, MOLP-2” value was found to be 0.018 nM. Moreover, in the experiment with human GPRC5D [2], the “EC50 of in vitro killing, NCI-H929” value came to 0.007 nM; the “EC50 of in vitro killing, OPM-2” value amounted to 0.002 nM; the “EC50 of in vitro killing, RPMI” value was determined as 0.064 nM.

B2: ET150-5-TCB (bispecific antibody, human IgG1, lambda, L234A L235A)
light 1: QSVLTQPPSASGTPGQRVTISCSGSRSNVGGNYVFWYQQVPGATPKLLIYRSNQRPSGVPDRFAGSKSGSSASLAISGLRSEDEADYYCATWDDSLSGFVFGTGTKVTVLGQPKAAPSVTLFPPSSKKLQANKATLVCLISDFYPGAVTVAWKADSSPVKAGVETTTPSKQSNNKYAASSYLSLTPEQWKSHRSYSCQVTHEGSTVEKTVAPTECS
light 2: EVQLLESGGGLVQPGGSLRLSCAASGFTFSTYAMNWVRQAPGKGLEWVSRIRSKYNNYATYYADSVKGRFTISRDDSKNTLYLQMNSLRAEDTAVYYCVRHGNFGNSYVSWFAYWGQGTLVTVSSASVAAPSVFIFPPSDEQLKSGTASVVCLLNNFYPREAKVQWKVDNALQSGNSQESVTEQDSKDSTYSLSSTLTLSKADYEKHKVYACEVTHQGLSSPVTKSFNRGEC
heavy 1: EVQLVESGGGLVKPGGSLRLSCAASGFTFSDYYMSWIRQAPGKGLEWVSYISSSGSTIYYADSVKGRFTISRDNAKNSLYLQMNSLRAEDTAVYYCARGYGKAYDQWGQGTLVTVSSASTKGPSVFPLAPSSKSTSGGTAALGCLVEDYFPEPVTVSWNSGALTSGVHTFPAVLQSSGLYSLSSVVTVPSSSLGTQTYICNVNHKPSNTKVDEKVEPKSCDKTHTCPPCPAPEAAGGPSVFLFPPKPKDTLMISRTPEVTCVVVDVSHEDPEVKFNWYVDGVEVHNAKTKPREEQYNSTYRVVSVLTVLHQDWLNGKEYKCKVSNKALGAPIEKTISKAKGQPREPQVCTLPPSRDELTKNQVSLSCAVKGFYPSDIAVEWESNGQPENNYKTTPPVLDSDGSFFLVSKLTVDKSRWQQGNVFSCSVMHEALHNHYTQKSLSLSPGK
heavy 2: not shown
As for B2, in the experiment with human GPRC5D [1], the “EC50 of T cell mediated killing, AMO-1 cells (LDH release)” value was determined as 0.0835 nM; the “EC50 of T cell mediated killing, L363 cells (LDH release)” value came out at 0.768 nM; the “EC50 of T cell mediated killing, NCI-H929 cells (LDH release)” value was found to be 0.833 nM; the “EC50 of T cell mediated killing, RPMI-8226 cells (LDH release)” value was 0.797 nM.

B3: P1AE5716 (antibody, V domains shown)
VH: ELQLLESGGGLVQPGGSLRLSCAASGFTFSKYAMAWVRQAPGKGLEWVASISTGGVNTYYRDSVKARFTISRDNAKNTLYLQMNSLRAEDTAVYYCATHTGDYFDYWGQGTMVTVSS
VL: EIVLTQSPGTLSLSPGERATLSCRASQSVSISGINLMNWYQQKPGQQPRLLIYHASILASGIPDRFSGSGSGTDFTLTISRLEPEDFAVYYCQQTRESPLTFGQGTRLEIK
On to B3, for which the “CAR-J2 EC50” value in the experiment with human GPRC5D [3] stood at 3.3 ng/mL.

B4: P1AE5725 (antibody, V domains shown)
VH: EVQLLESGGGLVQPGGSLRLSCAASGFTFSKYAMAWVRQAPGKGLEWVASISTGGVNTYYADSVKGRFTISRDNSKNTLYLQMNSLRAEDTAVYYCATHTGDYFDYWGQGTMVTVSS
VL: DIQMTQSPSSLSASVGDRVTITCRASQSVSISGINLMNWYQQKPGQQPKLLIYHASILASGVPSRFSGSGSGTDFTLTISSLQPEDFATYYCQQTRESPLTFGQGTRLEIK
For the molecule B4, in the experiment with human GPRC5D [3], the “CAR-J2 EC50” value was 10.9 ng/mL.

B5: P1AE5719 (antibody, V domains shown)
VH: ELQLLESGGGLVQPGGSLRLSCAASGFTFSKYAMAWVRQAPGKGLEWVASISTGGVNTYYRDSVKARFTISRDNAKNTLYLQMNSLRAEDTAVYYCATHTGDYFDYWGQGTMVTVSS
VL: DIQMTQSPSSLSASVGDRVTITCRASQSVSISGINLMNWYQQKPGQQPKLLIYHASILASGVPSRFSGSGSGTDFTLTISSLQPEDFATYYCQQTRESPLTFGQGTRLEIK
For B5, the “CAR-J2 EC50” value with human GPRC5D [3] amounted to 2.8 ng/mL.

B6: P1AE5724 (antibody, V domains shown)
VH: EVQLLESGGGLVQPGGSLRLSCAASGFTFSKYAMAWVRQAPGKGLEWVASISTGGVNTYYADSVKGRFTISRDNSKNTLYLQMNSLRAEDTAVYYCATHTGDYFDYWGQGTMVTVSS
VL: DIQMTQSPSSLSASVGDRVTITCRASQSVSISGINLMNWYQQKPGKQPKLLIYHASILASGVPSRFSGSGSGTDFTLTISSLQPEDFATYYCQQTRESPLTFGQGTRLEIK
As to B6, the “CAR-J2 EC50” value with human GPRC5D [3] was found to be 3.6 ng/mL.

B7: P1AE5731 (antibody, V domains shown)
VH: ELQLLESGGGLVQPGGSLRLSCAASGFTFSKYAMAWVRQAPGKGLEWVASISTGGVNTYYADSVKGRFTISRDNAKNTLYLQMNSLRAEDTAVYYCATHTGDYFDYWGQGTMVTVSS
VL: DIQMTQSPSSLSASVGDRVTITCRASQSVSISGINLMNWYQQKPGQQPKLLIYHASILASGVPSRFSGSGSGTDFTLTISSLQPEDFATYYCQQTRESPLTFGQGTRLEIK
On to B7, for which the “CAR-J2 EC50” value with human GPRC5D [3] was 2.3 ng/mL.

B8: P1AE5730 (antibody, V domains shown)
VH: ELQLLESGGGLVQPGGSLRLSCAASGFTFSKYAMAWVRQAPGKGLEWVASISTGGVNTYYADSVKGRFTISRDNAKNTLYLQMNSLRAEDTAVYYCATHTGDYFDYWGQGTMVTVSS
VL: DIQMTQSPSSLSASVGDRVTITCRASQSVSISGINLMNWYQQKPGKQPKLLIYHASILASGVPSRFSGSGSGTDFTLTISSLQPEDFATYYCQQTRESPLTFGQGTRLEIK
Regarding B8, the “CAR-J2 EC50” value in the experiment with human GPRC5D [3] stood at 3.5 ng/mL.

B9: P1AE5712 (antibody, V domains shown)
VH: EVQLLESGGGLVQPGGSLRLSCAASGFTFSKYAMAWVRQAPGKGLEWVASISTGGVNTYYRDSVKARFTISRDNSKNTLYLQMNSLRAEDTAVYYCATHTGDYFDYWGQGTMVTVSS
VL: DIQMTQSPSSLSASVGDRVTITCRASQSVSISGINLMNWYQQKPGKQPKLLIYHASILASGVPSRFSGSGSGTDFTLTISSLQPEDFATYYCQQTRESPLTFGQGTRLEIK
As for B9, the “CAR-J2 EC50” value with human GPRC5D [3] amounted to 16.1 ng/mL.

B10: P1AE5718 (antibody, V domains shown)
VH: ELQLLESGGGLVQPGGSLRLSCAASGFTFSKYAMAWVRQAPGKGLEWVASISTGGVNTYYRDSVKARFTISRDNAKNTLYLQMNSLRAEDTAVYYCATHTGDYFDYWGQGTMVTVSS
VL: DIQMTQSPSSLSASVGDRVTITCRASQSVSISGINLMNWYQQKPGKQPKLLIYHASILASGVPSRFSGSGSGTDFTLTISSLQPEDFATYYCQQTRESPLTFGQGTRLEIK
Turning to B10, the “CAR-J2 EC50” value with human GPRC5D [3] stood at 105 ng/mL.

B11: P1AE5728 (antibody, V domains shown)
VH: ELQLLESGGGLVQPGGSLRLSCAASGFTFSKYAMAWVRQAPGKGLEWVASISTGGVNTYYADSVKGRFTISRDNAKNTLYLQMNSLRAEDTAVYYCATHTGDYFDYWGQGTMVTVSS
VL: EIVLTQSPGTLSLSPGERATLSCRASQSVSISGINLMNWYQQKPGQQPRLLIYHASILASGIPDRFSGSGSGTDFTLTISRLEPEDFAVYYCQQTRESPLTFGQGTRLEIK
As to B11, the “CAR-J2 EC50” value with human GPRC5D [3] is 5.6 ng/mL.

B12: P1AE5717 (antibody, V domains shown)
VH: ELQLLESGGGLVQPGGSLRLSCAASGFTFSKYAMAWVRQAPGKGLEWVASISTGGVNTYYRDSVKARFTISRDNAKNTLYLQMNSLRAEDTAVYYCATHTGDYFDYWGQGTMVTVSS
VL: EIVLTQSPGTLSLSPGERATLSCRASQSVSISGINLMNWYQQKPGQQPKLLIYHASILASGIPDRFSGSGSGTDFTLTISRLEPEDFAVYYCQQTRESPLTFGQGTRLEIK
Regarding B12, the “CAR-J2 EC50” value with human GPRC5D [3] came out at 79.9 ng/mL.

B13: P1AE5722 (antibody, V domains shown)
VH: EVQLLESGGGLVQPGGSLRLSCAASGFTFSKYAMAWVRQAPGKGLEWVASISTGGVNTYYADSVKGRFTISRDNSKNTLYLQMNSLRAEDTAVYYCATHTGDYFDYWGQGTMVTVSS
VL: EIVLTQSPGTLSLSPGERATLSCRASQSVSISGINLMNWYQQKPGQQPRLLIYHASILASGIPDRFSGSGSGTDFTLTISRLEPEDFAVYYCQQTRESPLTFGQGTRLEIK
Consider B13, for which the “CAR-J2 EC50” value with human GPRC5D [3] worked out at 4.6 ng/mL.

B14: P1AE5729 (antibody, V domains shown)
VH: ELQLLESGGGLVQPGGSLRLSCAASGFTFSKYAMAWVRQAPGKGLEWVASISTGGVNTYYADSVKGRFTISRDNAKNTLYLQMNSLRAEDTAVYYCATHTGDYFDYWGQGTMVTVSS
VL: EIVLTQSPGTLSLSPGERATLSCRASQSVSISGINLMNWYQQKPGQQPKLLIYHASILASGIPDRFSGSGSGTDFTLTISRLEPEDFAVYYCQQTRESPLTFGQGTRLEIK
For B14, the “CAR-J2 EC50” value with human GPRC5D [3] came out at 61.3 ng/mL.

B15: P1AE5723 (antibody, V domains shown)
VH: EVQLLESGGGLVQPGGSLRLSCAASGFTFSKYAMAWVRQAPGKGLEWVASISTGGVNTYYADSVKGRFTISRDNSKNTLYLQMNSLRAEDTAVYYCATHTGDYFDYWGQGTMVTVSS
VL: EIVLTQSPGTLSLSPGERATLSCRASQSVSISGINLMNWYQQKPGQQPKLLIYHASILASGIPDRFSGSGSGTDFTLTISRLEPEDFAVYYCQQTRESPLTFGQGTRLEIK
For the molecule B15, in the experiment with human GPRC5D [3], the “CAR-J2 EC50” value turned out to be 3.7 ng/mL.

Values taken from patent US20220411491A1 (Hoffmann-La Roche, published 2022).
